{"source": "patent US11407840B2", "about": "“Antibodies to M(H)DM2/4 and their use in diagnosing and treating cancer” (NomoCan Pharmaceuticals LLC, priority 2017, dated 2022)", "molecules": {"B1": {"name": "NMC-204: mouse monoclonal antibody, IgG3 isotype, binds NMC-P2 (SEQ ID NO:2); VH SEQ ID NO:38, VL SEQ ID NO:39 (antibody, V domains shown)", "VH": "EVQLQESGSVLVRPGASVKLSCKASGDTLSGSWMHWAMQRPGQGLEWIGEIHLNRGTTNYNEKFKGKATVTVDTSSSTAYVDLSSLTSEDSAVYYCARSPGFAYWGQGTLVTVSA", "VL": "GIVMTQAAPSVPVTPGESVSISCRSSKSLLHSNGNSYLYWFLQRPGQSPQLLIYRMSNLASGVPDRFSGSGSGTAFTLRITRVEAEDVGVYYCMQHLEYPFTFGSGTKLEIK", "modifications": "mAb NMC-204 Heavy Chain Variable Region; mAb NMC-204 Light Chain Variable Region"}, "B2": {"name": "NMC-103: mouse monoclonal antibody, IgG1 isotype, binds NMC-P1 (SEQ ID NO:1); VH SEQ ID NO:36, VL SEQ ID NO:37 (antibody, V domains shown)", "VH": "EVQLQESGGGLVQPGGSLRLSCTTSGFTFTHYYMSWVRQPPGKALEWLGFIRNKAKGYTAEYSASVKGRFTISRDNSQSILYLQMNTLRPEDSATYYCARDIGDNWGQGTLVTVSS", "VL": "DIVMTQAAFSNPVTLGTSASISCRSSKNLLHSNGITYLYWYLQRPGQSPQLLISRVSNLASGVPNRFSGSESGTDFTLRISRVEAEDVGVYFCAQLLELPYTFGGGTKLEIK", "modifications": "mAb NMC-103 Heavy Chain Variable Region; mAb NMC-103 Light Chain Variable Region"}}, "key": {"[1]": {"test_system": "Human pancreatic cancer MIAPaCa-2 cells", "assay": "In vitro growth inhibition (cell count)", "format": "cell-based", "conditions": "overnight", "method": "Methodology used: Human pancreatic cancer MIAPaCa-2 cells (8,000 cells/well) were pre-incubated with mAb NMC-103, NMC-204 and anti-Cytochrome-C antibody (Santa Cruz, Cat No. sc-13156) at 1, 5 and 10 μg/mL, respectively. Cells in the presence of one of the antibodies at various concentrations were then plated in triplicate in 96-well cell culture plates overnight. The next day, each plate well was analyzed morphologically and a picture was taken from each well using EVOS FL microscope. Cell count was also performed and the number of living cells was graphed as % of control."}, "[2]": {"test_system": "mouse colon cancer MC-38 cells (subcutaneous tumors)", "assay": "MC-38 syngeneic mouse model of colon cancer", "format": "in vivo, mouse (C57BL/6)", "conditions": "for reduction in tumor volume versus control: FIG. 23", "method": "Methodology used (Syngeneic Mouse Models of lung, colon and pancreatic cancer): To investigate the anti-tumor effects of HDM2-specific antibodies on lung, colon and pancreatic tumors in vivo, three well-known syngeneic mouse models of lung, colon and pancreatic cancer were used (Sharma et al, 1999, J. Immunol. 163 (9):5020-5028; McIntyre, 2015, Bioassays 37(8):909-920; Li, et al, 2015, Sci. Rep. 5:7856). Subcutaneous tumors were prepared by implanting either mouse Lewis Lung cancer LL/2 cells (2.5×10^5 cells/mouse), mouse colon cancer MC-38 cells (5×10^5 cells/mouse) or mouse pancreatic cancer Panc-2 cells (2×10^6 cells/mouse) in the right flanks of 8-week-old female C57BL/6 mice (n=6-7). The mice were returned to their respective cages after tumor implantation. From day 7 after tumor implantation, the tumor volumes were measured 2 times/week with a digital caliper. In the case of MC-38 and Panc-2 study, treatment started when the tumors reached an average of 70-80 mm^3. In the case of LL/2 study, tumor cell inoculation and treatment were initiated simultaneously. Mice were micro-chipped and registered following tumor implantation. Tumor volume measurements and body weights were recorded and mice were randomized into groups that received: A) mAb NMC-103 at 0.4 mg/kg (3 times a week for 3 weeks), 2 mg/kg (2 times a week for 3 weeks), or 4 mg/kg (2 times a week for 3 weeks); B) NMC-204 at 0.4 mg/kg (3 times a week for 3 weeks); C) isotype control mouse IgG1 (Abeam, Cat. No. ab 18447) or IgG3 (Abeam, Cat. No. ab 18392) at 0.4 mg/kg (3 times a week for 3 weeks) or 4 mg/kg (2 times a week for 3 weeks); D) Gemcitabine (25 mg/kg) and nab-paclitaxel (5 mg/kg) 2 times a week for 3 weeks; or E) a combination of gemcitabine (25 mg/kg), nab-paclitaxel (5 mg/kg) and mAb NMC-103 (2 mg/kg; 2 times a week for 3 weeks) or (10 mg/kg; 2 times a week for 2 weeks). All tumors were injected subcutaneously and all treatments were performed by intraperitoneal injection. Any mouse displaying prolonged adverse clinical signs, or with body weight loss exceeding 15% relative to body weight at day 0, was euthanized. Tumor measurements from post-treatment with HDM2-specific antibodies versus isotype control mouse antibodies versus standard of care treatment (gemcitabine and nab-paclitaxel) were made, and results are presented in FIGS. 16-19.\nTo further evaluate the NMC-103 dose-dependent anti-tumor effect, in a separate study, the MC-38 syngeneic tumor in mice (n=5) was re-established and treatment carried out similarly to the study of FIG. 17 with the following modification: increase of antibody concentration from 0.4 mg/kg to 10 mg/kg."}, "[3]": {"target": "T1, recombinant full-length HDM2 protein (GST tagged) (Homo sapiens, UniProt Q00987)", "T1 construct": "reacted with the recombinant full-length HDM2 protein; purchased Abcam ab188727", "T1 sequence (Q00987 whole entry)": "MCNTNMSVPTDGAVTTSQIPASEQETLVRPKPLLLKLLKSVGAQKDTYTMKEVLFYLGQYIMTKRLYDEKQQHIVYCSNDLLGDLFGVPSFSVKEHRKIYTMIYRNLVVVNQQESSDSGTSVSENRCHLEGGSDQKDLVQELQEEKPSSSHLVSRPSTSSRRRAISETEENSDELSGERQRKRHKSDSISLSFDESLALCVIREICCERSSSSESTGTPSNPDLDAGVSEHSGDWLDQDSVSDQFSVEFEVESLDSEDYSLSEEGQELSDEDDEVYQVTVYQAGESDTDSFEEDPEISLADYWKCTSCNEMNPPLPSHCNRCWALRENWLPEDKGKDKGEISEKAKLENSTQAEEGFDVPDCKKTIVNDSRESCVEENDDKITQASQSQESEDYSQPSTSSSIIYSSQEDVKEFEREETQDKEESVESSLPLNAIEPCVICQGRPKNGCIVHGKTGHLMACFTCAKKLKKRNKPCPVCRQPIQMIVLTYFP", "assay": "Western blot (immunoblot)", "format": "binding", "conditions": "1 μg/well protein; band at approximately 83 kD; FIG. 2", "method": "Western Blot: As for immunoblots, 1 μg/well of recombinant FIDM2 protein (GST tagged, Abeam, Cat. No. ab188727) was separated on 8-16% sodium dodecyl sulfate (SDS) polyacrylamide gel and proteins were then transferred to polyvinylidene difluoride (PVDF) membrane. The membrane was blocked with 5% milk followed by incubation with monoclonal antibody NMC-103, NMC-204 or NMC-303 at 1 μg/πι ? in 1% milk in PBS for 2 hours. The membrane was then washed×3 times (10 minutes each) and incubated for 1 hour with corresponding HRP-conjugated secondary antibody (Goat anti-Mouse IgG (H&L), F(ab′)2 Frag Cross-adsorbed HRP (HRP-GaM F(ab′)2), ThermoFisher, Cat. No. A24524) diluted 1:5000 in 1% BSA-PBS. The membrane was then washed×3 times and incubated with Pierce ECL Plus Western Blotting Substrate (ThermoFisher, Cat. No. #32132) for 10 min before developing on a LICOR Scanner."}, "[4]": {"test_system": "normal human peripheral blood mononuclear cells (PBMCs)", "assay": "Cell-ELISA, intact normal cells", "format": "binding", "conditions": "freshly isolated PBMCs; FIG. 6", "method": "Cell-ELISA Methodology: 8,000-10,000 cells/well of a 96-well microplate were grown overnight. The next day, unbound cells were washed off with sterile 1× PBS. The cells in each well were fixed with freshly prepared 4% buffered paraformaldehyde (pH 7.2) for 1 hour followed by 3 washes with 1× PBS. The wells were then blocked with 5% BSA in PBS (100 ? /well) for 2 hours at room temperature. Microplate wells were then washed 5 times with 300 ? of ice cold 1× PBS. MAbs NMC-103, NMC-204 or NMC-303 at 1 μg/mL in 1% BSA/PBS were then incubated with various cancer or normal untransformed cells for 2 hours at room temperature. Wells were then washed with 300 ? of ice-cold 1× PBS for 5 times and corresponding secondary antibody HRP-GaM F(ab′)2 diluted 1:2500 or 1:5000 in PBS with 1% BSA were added at 100 ? /well for 1 hour at room temperature followed by washing 5 times with 300 ? of ice-cold 1× PBS. TMB Substrate Solution (1-StepTM Ultra TMB-ELISA, ThermoFisher, Cat. No. 34028) was then added at 50 ? ? to each microplate well and incubated at room temperature for 30 minutes. The reaction was stopped by addition of 50 μL, of stop solution (ThermoFisher, Cat. No. SSO4) to each well and absorbance of each well was measured at OD450 nm. The absorbance value of each experimental well was corrected for the absorbance value obtained from wells treated with isotype-identical mAbs included in each experiment. The results are thus expressed as “relative binding”."}, "[5]": {"conditions": "0.4 mg/kg i.p. 3 times a week for 3 weeks"}}, "data": [{"molecule": "B1", "values": [{"measurement": "growth inhibitory effect (FIG. 12D; number of living cells graphed as % of control)", "setting": "[1]; antibody 1 μg/mL", "value": 65, "unit": "%"}, {"measurement": "growth inhibitory effect (FIG. 12D; number of living cells graphed as % of control)", "setting": "[1]; antibody 5 μg/mL", "value": 73, "unit": "%"}, {"measurement": "growth inhibitory effect (FIG. 12D; number of living cells graphed as % of control)", "setting": "[1]; antibody 10 μg/mL", "value": 77, "unit": "%"}, {"measurement": "tumor volume", "setting": "[2]; 0.4 mg/kg i.p. 3 times a week for 3 weeks, FIG. 18A", "value": 1670, "unit": "mm^3"}, {"measurement": "reduction in tumor volume versus control", "setting": "[2]; [5]", "value": "significant (p<0.005) reduction in tumor volume"}, {"measurement": "tumor cells stained positively for Ki67", "setting": "[2]; NMC-204 study, 0.4 mg/kg, FIG. 18B", "value": 30, "unit": "%"}, {"measurement": "reactivity with recombinant full-length HDM2-GST protein in immunoblot", "setting": "[3]", "value": "reacted"}, {"measurement": "binding to intact normal human PBMCs, cell-ELISA", "setting": "[4]", "value": "did not react"}]}, {"molecule": "B2", "values": [{"measurement": "growth inhibitory effect (FIG. 12D; number of living cells graphed as % of control)", "setting": "[1]; antibody 1 μg/mL", "value": 65, "unit": "%"}, {"measurement": "growth inhibitory effect (FIG. 12D; number of living cells graphed as % of control)", "setting": "[1]; antibody 5 μg/mL", "value": 84, "unit": "%"}, {"measurement": "growth inhibitory effect (FIG. 12D; number of living cells graphed as % of control)", "setting": "[1]; antibody 10 μg/mL", "value": 91, "unit": "%"}, {"measurement": "reduction in tumor volume versus control", "setting": "[2]; [5]", "value": "significant (p<0.005) reduction in tumor volume"}, {"measurement": "tumor cells stained positive for Ki67 (immunohistochemistry)", "setting": "[2]; NMC-103 study, 0.4 mg/kg, FIG. 17B", "value": 5, "unit": "%"}, {"measurement": "average tumor size", "setting": "[2]; day 12, 10 mg/kg, 2 times per week for 2 weeks, n=5, FIG. 31", "value": 210, "unit": "mm^3"}, {"measurement": "tumor volume", "setting": "[2]; treated for 18 days, 0.4 mg/kg i.p. 3 times a week for 2.5 weeks, FIG. 17A", "value": 1268, "unit": "mm^3"}, {"measurement": "reactivity with recombinant full-length HDM2-GST protein in immunoblot", "setting": "[3]", "value": "reacted"}, {"measurement": "binding to intact normal human PBMCs, cell-ELISA", "setting": "[4]", "value": "virtually no binding"}]}]}
